Laboratory results published in patent publication US8703143.

Tests used:
Assay in all cases: ELISA on coated antigen, background subtracted
[1] = biological target: fibronectin purified from the conditioned medium of the SV40-transformed cell line WI38VA13 (human) (UniProt P02751)
[2] = biological target: human plasma fibronectin (human) (UniProt P02751)
[3] = biological target: large isoform of tenascin-C (UniProt P24821)
[4] = biological target: native FN 110 kD (B-) thermolysin fragment (human) (UniProt P02751)
native FN 110 kD (B-) thermolysin fragment (human), sequence (P02751 other isoform, or with tags, fused parts or gaps limits assumed): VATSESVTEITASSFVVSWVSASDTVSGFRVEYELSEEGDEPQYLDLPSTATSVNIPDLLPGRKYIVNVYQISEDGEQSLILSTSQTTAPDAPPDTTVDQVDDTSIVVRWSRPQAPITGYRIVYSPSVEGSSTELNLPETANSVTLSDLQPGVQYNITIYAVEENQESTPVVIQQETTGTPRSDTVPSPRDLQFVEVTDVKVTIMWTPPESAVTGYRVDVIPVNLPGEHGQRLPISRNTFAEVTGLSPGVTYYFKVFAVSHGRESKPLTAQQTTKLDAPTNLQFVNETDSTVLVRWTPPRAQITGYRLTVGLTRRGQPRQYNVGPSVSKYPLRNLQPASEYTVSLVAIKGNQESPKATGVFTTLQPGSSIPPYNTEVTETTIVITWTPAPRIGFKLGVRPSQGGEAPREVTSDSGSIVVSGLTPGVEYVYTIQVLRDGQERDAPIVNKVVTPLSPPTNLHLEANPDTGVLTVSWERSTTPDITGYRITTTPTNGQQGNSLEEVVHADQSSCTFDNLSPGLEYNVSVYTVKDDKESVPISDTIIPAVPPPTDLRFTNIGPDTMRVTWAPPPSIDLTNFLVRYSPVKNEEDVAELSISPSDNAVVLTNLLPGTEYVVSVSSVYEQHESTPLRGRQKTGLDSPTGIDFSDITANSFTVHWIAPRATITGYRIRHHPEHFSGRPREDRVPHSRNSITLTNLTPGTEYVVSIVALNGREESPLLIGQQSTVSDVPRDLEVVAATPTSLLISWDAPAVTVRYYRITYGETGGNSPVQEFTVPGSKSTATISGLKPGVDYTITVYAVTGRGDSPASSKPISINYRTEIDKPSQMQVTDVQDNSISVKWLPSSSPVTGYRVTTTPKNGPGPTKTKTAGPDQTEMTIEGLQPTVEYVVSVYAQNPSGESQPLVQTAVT

[5] = biological target: native FN 120 kD (B+) thermolysin fragment (human) (UniProt P02751)
native FN 120 kD (B+) thermolysin fragment (human), sequence (P02751 722-1721 limits assumed): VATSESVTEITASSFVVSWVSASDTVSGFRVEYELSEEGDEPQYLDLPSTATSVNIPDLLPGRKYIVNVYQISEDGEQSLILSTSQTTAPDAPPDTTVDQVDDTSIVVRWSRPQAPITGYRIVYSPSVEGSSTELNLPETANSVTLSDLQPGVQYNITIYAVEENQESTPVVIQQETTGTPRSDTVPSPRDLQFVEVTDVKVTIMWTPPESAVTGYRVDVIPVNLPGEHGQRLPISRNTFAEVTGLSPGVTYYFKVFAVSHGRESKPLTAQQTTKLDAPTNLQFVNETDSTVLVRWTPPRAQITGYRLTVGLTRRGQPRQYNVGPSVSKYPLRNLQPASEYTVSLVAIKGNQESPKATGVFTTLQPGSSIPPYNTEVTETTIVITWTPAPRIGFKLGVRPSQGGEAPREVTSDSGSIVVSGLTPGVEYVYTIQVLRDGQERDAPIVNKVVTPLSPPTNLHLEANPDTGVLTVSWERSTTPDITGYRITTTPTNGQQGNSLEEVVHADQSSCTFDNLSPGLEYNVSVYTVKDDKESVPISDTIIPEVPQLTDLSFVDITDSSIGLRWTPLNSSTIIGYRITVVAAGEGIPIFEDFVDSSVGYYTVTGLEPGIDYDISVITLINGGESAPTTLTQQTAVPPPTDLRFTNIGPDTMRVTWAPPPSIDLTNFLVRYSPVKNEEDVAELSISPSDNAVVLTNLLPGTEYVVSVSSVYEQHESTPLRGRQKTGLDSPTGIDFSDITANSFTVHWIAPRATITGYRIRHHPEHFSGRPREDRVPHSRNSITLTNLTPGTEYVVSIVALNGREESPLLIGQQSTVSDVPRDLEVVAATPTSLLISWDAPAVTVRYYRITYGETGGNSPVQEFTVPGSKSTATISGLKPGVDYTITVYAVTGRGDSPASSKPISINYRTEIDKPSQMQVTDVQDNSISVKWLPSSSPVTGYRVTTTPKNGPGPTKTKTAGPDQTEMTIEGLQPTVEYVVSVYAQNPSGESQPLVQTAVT

[6] = biological target: recombinant ED-B domain of human fibronectin with a carboxy terminal hexahistidine tag (human) (UniProt P02751)
recombinant ED-B domain of human fibronectin with a carboxy terminal hexahistidine tag (human), sequence (P02751 other isoform, or with tags, fused parts or gaps limits assumed): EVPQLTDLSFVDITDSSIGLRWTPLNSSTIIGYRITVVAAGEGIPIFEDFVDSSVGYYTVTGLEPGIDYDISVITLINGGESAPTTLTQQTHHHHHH

[7] = biological target: recombinant FN domain 6 (human) (UniProt P02751)
recombinant FN domain 6 (human), sequence (P02751 other isoform, or with tags, fused parts or gaps limits assumed): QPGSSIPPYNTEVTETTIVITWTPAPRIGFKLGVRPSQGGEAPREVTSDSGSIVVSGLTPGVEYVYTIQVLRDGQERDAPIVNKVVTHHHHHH

[8] = biological target: recombinant FN fragment 789 (human) (UniProt P02751)
recombinant FN fragment 789 (human), sequence (P02751 other isoform, or with tags, fused parts or gaps limits assumed): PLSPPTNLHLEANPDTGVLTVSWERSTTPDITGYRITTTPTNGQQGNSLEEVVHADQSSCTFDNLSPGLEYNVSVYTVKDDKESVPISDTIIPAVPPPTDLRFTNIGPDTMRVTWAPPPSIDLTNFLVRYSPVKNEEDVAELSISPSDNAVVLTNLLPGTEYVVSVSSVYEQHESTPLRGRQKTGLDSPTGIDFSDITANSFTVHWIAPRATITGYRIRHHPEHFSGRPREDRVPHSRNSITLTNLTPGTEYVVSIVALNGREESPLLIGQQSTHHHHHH

[9] = biological target: recombinant FN fragment 7B89 (human) (UniProt P02751)
recombinant FN fragment 7B89 (human), sequence (P02751 other isoform, or with tags, fused parts or gaps limits assumed): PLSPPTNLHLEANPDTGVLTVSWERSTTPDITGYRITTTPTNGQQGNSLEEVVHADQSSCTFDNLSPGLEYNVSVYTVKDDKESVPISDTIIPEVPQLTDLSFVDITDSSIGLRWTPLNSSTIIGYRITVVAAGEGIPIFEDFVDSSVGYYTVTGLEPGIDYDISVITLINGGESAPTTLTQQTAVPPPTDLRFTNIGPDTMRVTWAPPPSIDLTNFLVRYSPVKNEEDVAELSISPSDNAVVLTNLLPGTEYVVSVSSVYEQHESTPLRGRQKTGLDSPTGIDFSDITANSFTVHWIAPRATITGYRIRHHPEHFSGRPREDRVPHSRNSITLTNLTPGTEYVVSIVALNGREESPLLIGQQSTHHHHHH

large isoform of tenascin-C, sequence (P24821 23-2201): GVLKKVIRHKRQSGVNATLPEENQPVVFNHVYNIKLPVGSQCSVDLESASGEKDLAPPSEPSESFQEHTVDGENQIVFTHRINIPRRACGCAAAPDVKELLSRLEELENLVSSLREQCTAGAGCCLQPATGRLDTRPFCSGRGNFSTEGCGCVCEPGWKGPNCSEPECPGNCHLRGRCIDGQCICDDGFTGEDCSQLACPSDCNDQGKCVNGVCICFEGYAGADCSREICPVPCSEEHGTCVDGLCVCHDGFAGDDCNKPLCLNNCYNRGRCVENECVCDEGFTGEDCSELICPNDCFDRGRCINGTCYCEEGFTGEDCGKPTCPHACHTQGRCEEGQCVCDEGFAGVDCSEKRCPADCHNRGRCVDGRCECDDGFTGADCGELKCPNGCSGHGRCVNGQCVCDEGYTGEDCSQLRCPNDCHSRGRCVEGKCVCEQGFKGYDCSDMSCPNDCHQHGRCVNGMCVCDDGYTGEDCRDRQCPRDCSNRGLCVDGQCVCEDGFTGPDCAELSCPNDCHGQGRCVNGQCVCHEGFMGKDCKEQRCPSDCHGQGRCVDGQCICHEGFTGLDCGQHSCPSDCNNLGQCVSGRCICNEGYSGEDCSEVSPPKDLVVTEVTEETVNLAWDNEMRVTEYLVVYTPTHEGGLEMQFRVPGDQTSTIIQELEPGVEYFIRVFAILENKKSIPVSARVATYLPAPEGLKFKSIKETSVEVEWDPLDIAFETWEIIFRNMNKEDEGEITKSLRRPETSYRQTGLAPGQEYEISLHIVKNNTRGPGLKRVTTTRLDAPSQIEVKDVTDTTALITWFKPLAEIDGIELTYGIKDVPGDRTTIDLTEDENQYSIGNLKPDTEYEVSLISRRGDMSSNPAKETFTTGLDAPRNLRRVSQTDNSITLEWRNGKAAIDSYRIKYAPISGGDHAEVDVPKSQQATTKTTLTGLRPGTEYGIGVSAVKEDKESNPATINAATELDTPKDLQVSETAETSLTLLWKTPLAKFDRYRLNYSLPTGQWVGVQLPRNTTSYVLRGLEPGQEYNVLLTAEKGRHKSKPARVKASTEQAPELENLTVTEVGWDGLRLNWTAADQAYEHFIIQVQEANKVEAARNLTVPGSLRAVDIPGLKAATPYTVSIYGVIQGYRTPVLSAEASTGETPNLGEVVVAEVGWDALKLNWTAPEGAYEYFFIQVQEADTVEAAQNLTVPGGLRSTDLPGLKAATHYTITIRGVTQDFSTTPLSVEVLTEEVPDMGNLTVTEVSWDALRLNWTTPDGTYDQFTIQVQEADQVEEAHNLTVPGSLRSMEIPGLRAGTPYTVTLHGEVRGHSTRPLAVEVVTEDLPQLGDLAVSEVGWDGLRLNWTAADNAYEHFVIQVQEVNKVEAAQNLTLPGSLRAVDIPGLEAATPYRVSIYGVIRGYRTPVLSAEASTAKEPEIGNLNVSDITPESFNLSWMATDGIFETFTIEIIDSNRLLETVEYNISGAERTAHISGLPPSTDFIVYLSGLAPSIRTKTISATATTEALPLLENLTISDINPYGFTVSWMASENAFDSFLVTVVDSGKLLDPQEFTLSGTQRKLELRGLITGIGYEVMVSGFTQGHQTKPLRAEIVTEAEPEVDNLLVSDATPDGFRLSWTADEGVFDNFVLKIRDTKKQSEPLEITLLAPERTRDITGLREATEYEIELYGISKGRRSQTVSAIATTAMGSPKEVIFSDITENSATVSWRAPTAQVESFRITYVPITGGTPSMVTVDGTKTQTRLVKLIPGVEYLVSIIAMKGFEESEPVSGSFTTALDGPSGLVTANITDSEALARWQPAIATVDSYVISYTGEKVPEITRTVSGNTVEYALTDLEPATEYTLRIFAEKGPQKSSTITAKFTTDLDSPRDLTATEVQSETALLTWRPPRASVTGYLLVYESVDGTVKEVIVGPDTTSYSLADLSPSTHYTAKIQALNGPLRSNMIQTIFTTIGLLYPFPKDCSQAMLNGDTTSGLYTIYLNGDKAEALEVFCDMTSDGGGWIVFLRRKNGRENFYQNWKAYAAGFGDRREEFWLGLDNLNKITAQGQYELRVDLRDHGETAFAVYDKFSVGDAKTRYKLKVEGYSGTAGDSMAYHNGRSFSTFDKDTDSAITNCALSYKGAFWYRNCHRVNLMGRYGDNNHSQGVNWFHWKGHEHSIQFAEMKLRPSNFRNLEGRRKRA

OD at 405 nm [1]	OD at 405 nm [2]	OD at 405 nm [3]	OD at 405 nm [4]	OD at 405 nm [5]	OD at 405 nm [6]	OD at 405 nm [7]	OD at 405 nm [8]	OD at 405 nm [9]	Substance
1.2 OD 405 nm	0.09 OD 405 nm	0.06 OD 405 nm	0.05 OD 405 nm	1.2 OD 405 nm	0.15 OD 405 nm	0.08 OD 405 nm	0.05 OD 405 nm	1.02 OD 405 nm	mAb BC-1 (antibody)
1.12 OD 405 nm	1.73 OD 405 nm	0.02 OD 405 nm	1.2 OD 405 nm	0.02 OD 405 nm	0.04 OD 405 nm	0.03 OD 405 nm	1.25 OD 405 nm	0.01 OD 405 nm	mAb IST-6 (antibody)
